The results in this text go back to publication PMC9298306, “Controlling Enzymatic Activity by Modulating the Oligomerization State via Chemical Rescue and Optical Control” (Chembiochem, 2021).

As usually defined, the Km is the substrate concentration at which the rate is half of its maximum. Broadly, the stoichiometry N is a count of units in the complex or per binding partner. As a reminder, the kcat is the maximal rate divided by the concentration of active sites. As usually defined, the kcat/Km is the second-order rate constant that governs catalysis at low substrate concentration.

Changes are numbered by the printed parent chain. Names may count otherwise.

Series [1] deals with T1, RGGGPS (AncGGGPS2_N4_IF_n12).
T1 construct: His-tagged, from E. coli; hexamer
Briefly: coupled pyrophosphate/phosphate detection at […] nm (PPase, PNPase, xanthine oxidase), G1P-dependent. The settings on record: 11 μM GGPP, 10 mM MgCl2, pH 8.0, 40 °C, 0.2 % Tween80. The class given is biochemical.

In a further series the target is T2, mtGGGPS (Methanothermobacter thermautotrophicus, UniProt O26652, K143C/C191A, form not given).
T2 construct: gene MTH_552; His-tagged, expressed in E. coli BL21-Gold(DE3); hexamer (trimer of dimers); C194A/K146C variant is a dimer unless rescued
T2 sequence (O26652 whole entry K143C/C191A, form open): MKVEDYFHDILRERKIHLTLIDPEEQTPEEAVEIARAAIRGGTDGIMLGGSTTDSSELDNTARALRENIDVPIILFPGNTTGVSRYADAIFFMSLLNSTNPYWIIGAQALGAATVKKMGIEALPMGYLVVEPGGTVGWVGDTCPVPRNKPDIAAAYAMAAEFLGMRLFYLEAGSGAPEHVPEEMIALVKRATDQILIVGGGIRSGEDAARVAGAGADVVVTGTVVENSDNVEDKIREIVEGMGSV
Described as above. The class given is biochemical. The settings on record: 11 μM GGPP, 10 mM MgCl2, pH 8.0, 40 °C, 0.2 % Tween80; without bromoethylamine (−Am), dimer.

Series [2] concerns the target geranylgeranylglyceryl phosphate synthase from Methanothermobacter thermautotrophicus, wild type (Methanothermobacter thermautotrophicus) (UniProt O26652). Briefly: SEC-MALS; analytical SEC (Superdex 200 Increase 10/300 GL) in combination with static light scattering (right-angle light scattering and refractive index detectors); 40 μM subunit concentration; 50 mM potassium phosphate, pH 7.5, 300 mM KCl; room temperature (approx. 23 °C). (In gel filtration, larger molecules generally elute earlier.)

For series [3], the target named is mtGGGPS_(C194A) (Methanothermobacter thermautotrophicus) (UniProt O26652). The description is as above.
Series [4] deals with mtGGGPS_(C194A)_K146C^+Am (Methanothermobacter thermautotrophicus) (UniProt O26652).
The target is the same in series [5]. Briefly: SEC-MALS; analytical SEC (Superdex 200 Increase 10/300 GL) in combination with static light scattering (right-angle light scattering and refractive index detectors); 40 μM subunit concentration; 50 mM potassium phosphate, pH 7.5, 300 mM KCl; room temperature (approx. 23 °C).
Substrate in the series “purified protein”: O=P(O)(O)OC[C@@H](O)CO
In words: purified protein. The class given is biochemical, Methanothermobacter thermautotrophicus. The settings on record: 11 μM GGPP, 10 mM MgCl2, pH 8.0, 40 °C, 0.2 % Tween80.

For `O=P(O)(O)OC[C@@H](O)CO` [G1P, glycerol 1‐phosphate], the Km in series [1] worked out at 14.2 ± 2.2 µM; at mtGGGPS, 63.4 ± 5.8 µM.

Regarding “geranylgeranylglyceryl phosphate synthase from Methanothermobacter thermautotrophicus, wild type (from UniProt O26652 1-245) (enzyme)”, the stoichiometry N in series [2] stood at 6.

“mtGGGPS_(C194A) (from UniProt O26652 1-245) (enzyme)”: the stoichiometry N in series [3] was 6.

Take “mtGGGPS_(C194A)_K146C^+Am (from UniProt O26652 1-245) (enzyme)”: the kcat/KM, photometric assay of the GGGPS reaction at 40 °C in series [4] is 192000 M⁻¹ s⁻¹. In series [5], the percent in the hexameric state was 100% and the stoichiometry N is 6.

“mtGGGPS_(C194A)_K146C^−Am (from UniProt O26652 1-245) (enzyme)”: the kcat/KM, photometric assay of the GGGPS reaction at 40 °C in series [4] is 550 M⁻¹ s⁻¹. The stoichiometry N in series [5] is 2.

B1: mtGGGPS (Methanothermobacter thermautotrophicus str. Delta H) (protein)
chain: MKVEDYFHDILRERKIHLTLIDPEEQTPEEAVEIARAAIRGGTDGIMLGGSTTDSSELDNTARALRENIDVPIILFPGNTTGVSRYADAIFFMSLLNSTNPYWIIGAQALGAATVKKMGIEALPMGYLVVEPGGTVGWVGDTKPVPRNKPDIAAAYAMAAEFLGMRLFYLEAGSGAPEHVPEEMIALVKRCTDQILIVGGGIRSGEDAARVAGAGADVVVTGTVVENSDNVEDKIREIVEGMGSV
notes: His-tagged, expressed in E. coli BL21-Gold(DE3); hexamer (trimer of dimers); C194A/K146C variant is a dimer unless rescued
For B1, in “purified protein”, the Michaelis-Menten constant (Km) came out at 2.0 ± 0.3 µM, the catalytic constant (kcat) turned out to be 0.23 ± 0.005 s⁻¹ and the specificity constant (kcat/Km) was 115000 ± 17000 M⁻¹ s⁻¹.

B2: mtGGGPS (Methanothermobacter thermautotrophicus str. Delta H; C191A) (protein)
chain: B1 chain with C191A
notes: as for B1
For B2, in the series “purified protein”, the Km is 3.3 ± 0.6 µM, the turnover number (kcat) was found to be 0.29 ± 0.01 s⁻¹ and the catalytic efficiency (kcat/Km) was determined as 88000 ± 18000 M⁻¹ s⁻¹.
